# Laboratory results: patent publication US20240261333A1, “NOVEL TARGETS FOR ENHANCING ANTI-TUMOR IMMUNITY” (THE BROAD INSTITUTE, INC., priority 2021, published 2024)
# B1: PPFIBP1 (protein)
# chain: MMSDASDMLAAALEQMDGIIAGSKALEYSNGIFDCQSPTSPFMGSLRALHLVEDLRGLLEMMETDEKEGLRCQIPDSTAETLVEWLQSQMTNGHLPGNGDVYQERLARLENDKESLVLQVSVLTDQVEAQGEKIRDLEFCLEEHREKVNATEEMLQQELLSRTSLETQKLDLMAEISNLKLKLTAVEKDRLDYEDKFRDTEGLIQEINDLRLKVSEMDSERLQYEKKLKSTKDELASLKEQLEEKESEVKRLQEKLVCKMKGEGVEIVDRDIEVQKMKKAVESLMAANEEKDRKIEDLRQCLNRYKKMQDTVVLAQGKDGEYEELLNSSSISSLLDAQGFSDLEKSPSPTPVMGSPSCDPFNTSVPEEFHTTILQVSIPSLLPATVSMETSEKSKLTPKPETSFEENDGNIILGATVDTQLCDKLLTSSLQKSSSLGNLKKETSDGEKETIQKTSEDRAPAESRPFGTLPPRPPGQDTSMDDNPFGTRKVRSSFGRGFFKIKSNKRTASAPNLAETEKETAEHLDLAGASSRPKDSQRNSPFQIPPPSPDSKKKSRGIMKLFGKLRRSQSTTFNPDDMSEPEFKRGGTRATAGPRLGWSRDLGQSNSDLDMPFAKWTKEQVCNWLMEQGLGSYLNSGKHWIASGQTLLQASQQDLEKELGIKHSLHRKKLQLALQALGSEEETNHGKLDFNWVTRWLDDIGLPQYKTQFDEGRVDGRMLHYMTVDDLLSLKVVSVLHHLSIKRAIQVLRINNFEPNCLRRRPSDENTIAPSEVQKWTNHRVMEWLRSVDLAEYAPNLRGSGVHGGLMVLEPRFNVETMAQLLNIPPNKTLLRRHLATHFNLLIGAEAQHQKRDAMELPDYVLLTATAKVKPKKLAFSNFGNLRKKKQEDGEEYVCPMELGQASGSASKKGFKPGLDMRLYEEDDLDRLEQMEDSEGTVRQIGAFSEGINNLTHMLKEDDMFKDFAARSPSASITDEDSNV
# B2: EMILIN1 (protein)
# chain: ASYPPRGFSLYTGSSGALSPGGPQAQIAPRPASRHRNWCAYVVTRTVSCVLEDGVETYVKYQPCAWGQPQCPQSIMYRRFLRPRYRVAYKTVTDMEWRCCQGYGGDDCAESPAPALGPASSTPRPLARPARPNLSGSSAGSPLSGLGGEGPGESEKVQQLEEQVQSLTKELQGLRGVLQGLSGRLAEDVQRAVETAFNGRQQPADAAARPGVHETLNEIQHQLQLLDTRVSTHDQELGHLNNHHGGSSSSGGSRAPAPASAPPGPSEELLRQLEQRLQESCSVCLAGLDGFRRQQQEDRERLRAMEKLLASVEERQRHLAGLAVGRRPPQECCSPELGRRLAELERRLDVVAGSVTVLSGRRGTELGGAAGQGGHPPGYTSLASRLSRLEDRFNSTLGPSEEQEESWPGAPGGLSHWLPAARGRLEQLGGLLANVSGELGGRLDLLEEQVAGAMQACGQLCSGAPGEQDSQVSEILSALERRVLDSEGQLRLVGSGLHTVEAAGEARQATLEGLQEVVGRLQDRVDAQDETAAEFTLRLNLTAARLGQLEGLLQAHGDEGCGACGGVQEELGRLRDGVERCSCPLLPPRGPGAGPGVGGPSRGPLDGFSVFGGSSGSALQALQGELSEVILSFSSLNDSLNELQTTVEGQGADLADLGATKDRIISEINRLQQEATEHATESEERFRGLEEGQAQAGQCPSLEGRLGRLEGVCERLDTVAGGLQGLREGLSRHVAGLWAGLRETNTTSQMQAALLEKLVGGQAGLGRRLGALNSSLQLLEDRLHQLSLKDLTGPAGEAGPPGPPGLQGPPGPAGPPGSPGKDGQEGPIGPPGPQGEQGVEGAPAAPVPQVAFSAALSLPRSEPGTVPFDRVLLNDGGYYDPETGVFTAPLAGRYLLSAVLTGHRHEKVEAVLSRSNQGVARVDSGGYEPEGLENKPVAESQPSPGTLGVFSLILPLQAGDTVCVDLVMGQLAHSEEPLTIFSGALLYGDPELEHA
# B3: TELO2 (protein)
# chain: MEPAPSEVRLAVREAIHALSSSEDGGHIFCTLESLKRYLGEMEPPALPREKEEFASAHFSPVLRCLASRLSPAWLELLPHGRLEELWASFFLEGPADQAFLVLMETIEGAAGPSFRLMKMARLLARFLREGRLAVLMEAQCRQQTQPGFILLRETLLGKVVALPDHLGNRLQQENLAEFFPQNYFRLLGEEVVRVLQAVVDSLQGGLDSSVSFVSQVLGKACVHGRQQEILGVLVPRLAALTQGSYLHQRVCWRLVEQVPDRAMEAVLTGLVEAALGPEVLSRLLGNLVVKNKKAQFVMTQKLLFLQSRLTTPMLQSLLGHLAMDSQRRPLLLQVLKELLETWGSSSAIRHTPLPQQRHVSKAVLICLAQLGEPELRDSRDELLASMMAGVKCRLDSSLPPVRRLGMIVAEVVSARIHPEGPPLKFQYEEDELSLELLALASPQPAGDGASEAGTSLVPATAEPPAETPAEIVDGGVPQAQLAGSDSDLDSDDEFVPYDMSGDRELKSSKAPAYVRDCVEALTTSEDIERWEAALRALEGLVYRSPTATREVSVELAKVLLHLEEKTCVVGFAGLRQRALVAVTVTDPAPVADYLTSQFYALNYSLRQRMDILDVLTLAAQELSRPGCLGRTPQPGSPSPNTPCLPEAAVSQPGSAVASDWRVVVEERIRSKTQRLSKGGPRQGPAGSPSRFNSVAGHFFFPLLQRFDRPLVTFDLLGEDQLVLGRLAHTLGALMCLAVNTTVAVAMGKALLEFVWALRFHIDAYVRQGLLSAVSSVLLSLPAARLLEDLMDELLEARSWLADVAEKDPDEDCRTLALRALLLLQRLKNRLLPPASP
# B4: YTHDF2 (protein)
# chain: SASSLLEQRPKGQGNKVQNGSVHQKDGLNDDDFEPYLSPQARPNNAYTAMSDSYLPSYYSPSIGFSYSLGEAAWSTGGDTAMPYLTSYGQLSNGEPHFLPDAMFGQPGALGSTPFLGQHGFNFFPSGIDFSAWGNNSSQGQSTQSSGYSSNYAYAPSSLGGAMIDGQSAFANETLNKAPGMNTIDQGMAALKLGSTEVASNVPKVVGSAVGSGSITSNIVASNSLPPATIAPPKPASWADIASKPAKQQPKLKTKNGIAGSSLPPPPIKHNMDIGTWDNKGPVAKAPSQALVQNIGQPTQGSPQPVGQQANNSPPVAQASVGQQTQPLPPPPPQPAQLSVQQQAAQPTRWVAPRNRGSGFGHNGVDGNGVGQSQAGSGSTPSEPHPVLEKLRSINNYNPKDFDWNLKHGRVFIIKSYSEDDIHRSIKYNIWCSTEHGNKRLDAAYRSMNGKGPVYLLFSVNGSGHFCGVAEMKSAVDYNTCAGVWSQDKWKGRFDVRWIFVKDVPNSQLRHIRLENNENKPVTNSRDTQEVPLEKAKQVLKIIASYKHTTSIFDDFSHYEKRQEEEESVKKERQGRGK
# B5: HNRNPM (protein)
# chain: AAGVEAAAEVAATEIKMEEESGAPGVPSGNGAPGPKGEGERPAQNEKRKEKNIKRGGNRFEPYANPTKRYRAFITNIPFDVKWQSLKDLVKEKVGEVTYVELLMDAEGKSRGCAVVEFKMEESMKKAAEVLNKHSLSGRPLKVKEDPDGEHARRAMQKVMATTGGMGMGPGGPGMITIPPSILNNPNIPNEIIHALQAGRLGSTVFVANLDYKVGWKKLKEVFSMAGVVVRADILEDKDGKSRGIGTVTFEQSIEAVQAISMFNGQLLFDRPMHVKMDERALPKGDFFPPERPQQLPHGLGGIGMGLGPGGQPIDANHLNKGIGMGNIGPAGMGMEGIGFGINKMGGMEGPFGGGMENMGRFGSGMNMGRINEILSNALKRGEIIAKQGGGGGGGSVPGIERMGPGIDRLGGAGMERMGAGLGHGMDRVGSEIERMGLVMDRMGSVERMGSGIERMGPLGLDHMASSIERMGQTMERIGSGVERMGAGMGFGLERMAAPIDRVGQTIERMGSGVERMGPAIERMGLSMERMVPAGMGAGLERMGPVMDRMATGLERMGANNLERMGLERMGANSLERMGLERMGANSLERMGPAMGPALGAGIERMGLAMGGGGGASFDRAIEMERGNFGGSFAGSFGGAGGHAPGVARKACQIFVRNLPFDFTWKMLKDKFNECGHVLYADIKMENGKSKGCGVVKFESPEVAERACRMMNGMKLSGREIDVRIDRNA
# B6: S100A7 (protein)
# chain: SNTQAERSIIGMIDMFHKYTRRDDKIEKPSLLTMMKENFPNFLSACDKKGTNYLADVFEKKDKNEDKKIDFSEFLSLLGDIATDYHKQSHGAAPCSGGSQ
# B7: PHGDH (protein)
# chain: AFANLRKVLISDSLDPCCRKILQDGGLQVVEKQNLSKEELIAELQDCEGLIVRSATKVTADVINAAEKLQVVGRAGTGVDNVDLEAATRKGILVMNTPNGNSLSAAELTCGMIMCLARQIPQATASMKDGKWERKKFMGTELNGKTLGILGLGRIGREVATRMQSFGMKTIGYDPIISPEVSASFGVQQLPLEEIWPLCDFITVHTPLLPSTTGLLNDNTFAQCKKGVRVVNCARGGIVDEGALLRALQSGQCAGAALDVFTEEPPRDRALVDHENVISCPHLGASTKEAQSRCGEEIAVQFVDMVKGKSLTGVVNAQALTSAFSPHTKPWIGLAEALGTLMRAWAGSPKGTIQVITQGTSLKNAGNCLSPAVIVGLLKEASKQADVNLVNAKLLVKEAGLNVTTSHSPAAPGEQGFGECLLAVALAGAPYQAVGLVQGTTPVLQGLNGAVFRPEVPLRRDLPLLLFRTQTSDPAMLPTMIGLLAEAGVRLLSYQTSLVSDGETWHVMGISSLLPSLEAWKQHVTEAFQFHF
# Biological target: T1, B3GNT2 (Homo sapiens, UniProt Q9NY97)
# T1 construct: The respective ORFs of candidate genes [CD274 (NM_014143), MCL1 (NM_021960), JUNB (NM_002229), and B3GNT2 (NM_006577)] were synthesized; expressed in transfected cells; host or cells: A375 melanoma cells (lentiviral ORF overexpression)
# T1 sequence (Q9NY97 1-397): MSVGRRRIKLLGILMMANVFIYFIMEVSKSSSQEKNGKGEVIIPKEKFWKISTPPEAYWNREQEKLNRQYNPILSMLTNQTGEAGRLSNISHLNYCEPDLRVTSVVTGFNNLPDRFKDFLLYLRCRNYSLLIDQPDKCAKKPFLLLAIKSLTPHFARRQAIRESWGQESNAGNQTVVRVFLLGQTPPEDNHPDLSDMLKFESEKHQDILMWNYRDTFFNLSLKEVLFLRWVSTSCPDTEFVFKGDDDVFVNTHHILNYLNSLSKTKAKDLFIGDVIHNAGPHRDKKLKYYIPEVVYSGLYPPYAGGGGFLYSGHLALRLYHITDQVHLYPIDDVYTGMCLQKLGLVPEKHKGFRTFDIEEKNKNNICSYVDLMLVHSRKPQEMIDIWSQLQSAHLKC
# Experiment: Co-IP of FLAG-tagged B3GNT2 followed by mass spectrometry
# Format: cell-based
# Design: C-term IgG / C-term flag: unit not given here
# Conditions: Co-IP followed by mass spectrometry of B3GNT2; C-term tag, FLAG pull-down
# Method in brief: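 FLAG-tagged B3GNT2 immunoprecipitated from cell lysate (HEPES, 1% Triton X-100, 150 mM NaCl) with anti-FLAG versus […], overnight at 4° C, then captured on Protein A/G magnetic beads for 4 h. Two biological replicates per condition. Peptides fractionated and analyzed by nano-LC on an Orbitrap Elite in data-dependent mode.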
row,C-term flag,Molecule
1,3,B1
2,3,B2
3,3,B3
4,4,B4
5,8,B5
6,5,B6

# Same assay, conditions: Co-IP followed by mass spectrometry of B3GNT2; C-term tag, IgG pull-down
row,C-term IgG,Molecule
1,0,B1
2,0,B2
3,0,B3
4,2,B4
5,5,B5
6,3,B6

# Same assay, conditions: Co-IP followed by mass spectrometry of B3GNT2; N-term tag, FLAG pull-down
row,N-term FLAG,Molecule
1,2,B1
2,2,B2
3,2,B3
4,5,B4
5,6,B5
6,3,B6

# Same assay, conditions: Co-IP followed by mass spectrometry of B3GNT2; N-term tag, IgG pull-down
row,N-term IgG,Molecule
1,0,B1
2,0,B2
3,0,B3
4,4,B4
5,5,B5
6,2,B6

# Same assay, conditions: Co-IP with FLAG antibody, C-terminally FLAG-tagged B3GNT2; mass spectrometry count, unit not given
row,C-term flag,Molecule
1,7,B7

# Same assay, conditions: Co-IP with FLAG antibody, N-terminally FLAG-tagged B3GNT2; mass spectrometry count, unit not given
row,N-term FLAG,Molecule
1,29,B7

# Same assay, conditions: Co-IP with IgG control antibody, C-terminally FLAG-tagged B3GNT2; mass spectrometry count, unit not given
row,C-term IgG,Molecule
1,0,B7

# Same assay, conditions: Co-IP with IgG control antibody, N-terminally FLAG-tagged B3GNT2; mass spectrometry count, unit not given
row,N-term IgG,Molecule
1,0,B7
